Among the data in paper PMC3787020 are stoichiometry N values, retold here.

For test [1], the target named is C33S mutant human TGF-β1 (pro-TGF-β1 and latent TGF-β1), expressed in 293 cells (human). Description: non-reducing SDS-PAGE and western blot of immunoprecipitates; anti-GARP IP products of cell lysates; SDS-PAGE under non-reducing conditions; WB with anti-LAP antibodies.
In test [2] the target is TGF-β1 (pro-TGF-β1 and latent TGF-β1), endogenous in human T cells (human (endogenous in human T cells)). Kind of test: non-reducing SDS-PAGE and western blot of culture supernatants; cells incubated in serum-free medium for 24 or 48 hours; supernatants analysed by WB under non-reducing conditions with anti-GARP and anti-LAP antibodies.
For test [3], the target named is wild type human TGF-β1 (pro-TGF-β1 and latent TGF-β1), expressed in 293 cells (human). Described as above.
Test [4] concerns the target C33S mutant human TGF-β1 (pro-TGF-β1 and latent TGF-β1), expressed in murine BW5147 T cells (human). Description: non-reducing SDS-PAGE and western blot of immunoprecipitates; anti-GARP IP products of cell lysates; SDS-PAGE under non-reducing conditions; WB with anti-LAP antibodies.

What is called stoichiometry N is the number of molecules, sites or subunits per partner or assembly. On to “C33S mutant human TGF-β1 (pro-TGF-β1 and latent TGF-β1), expressed in 293 cells (ligand)”, for which the stoichiometry N in test [1] was 2.
For the substance “TGF-β1 (pro-TGF-β1 and latent TGF-β1), endogenous in human T cells (ligand)”, in test [2], the stoichiometry N came out at 2.
Substance “wild type human TGF-β1 (pro-TGF-β1 and latent TGF-β1), expressed in 293 cells (ligand)” had a stoichiometry N in test [3] of 2.
Take “C33S mutant human TGF-β1 (pro-TGF-β1 and latent TGF-β1), expressed in murine BW5147 T cells (ligand)”: in test [4], the stoichiometry N stood at 2.
